# Source: the nanobody polyreactivity screen of Harvey et al. (2022)
# Test: yeast display, Sf9 membrane polyspecificity reagent, FACS + sequencing; frameworks hold sequencing errors
# Procedure, shortened: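 Galactose induction of a Saccharomyces cerevisiae BJ5465 synthetic nanobody display library ran 36–48 hours. The cells were then stained for 1 hour at 4 °C with 10% biotinylated, detergent-solubilized Sf9 membrane reagent, pulled down on streptavidin microbeads and FACS-sorted into low and high (top ~1%) gates on expression and reagent-binding fluorescence. Labels for polyreactivity follow the gate of origin.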
row,Sequence,polyreactivity (PSR sort gate)
1,QVQLVESGGGLVQAGGSLRLSCAASGFIFSSYAMGWYRQAPGKERELVAAINSSGGRTYYADSVKGRFTISRDNAKNTVYLQMNSLKPEDTAVYYCAAVVWSYYVGDDYWGQGTQVTVSS,high polyreactivity
2,QVQLVESGGGLVQAGGSLRLSCAASGCIFVRYAMGWYRQAPGKERELVAAISRSGGSTSYADSVKGRFTISRDNAKNTVYLQMNSLKPEDTAVYYCAVVRGGRGYPGYDYWGQGTQVTVSS,low polyreactivity
3,QVQLVDSGAGLVQAGGSLRLSCAASGRISYVYAMGWYRQAPGKDRELVAGITWSDGSTFYADSVKGSFTISRDNAKNTVYLQMNSLKPEDTAVYYCAARFNRKILGRYYFWGQGTQVTVSS,high polyreactivity
4,QVQLVESGGGLVQAGGSLRLSCAASGRTFRYYAMGWYRQAPGKERELVAAISASGGSTFYADSVKGRFTISRDNAKNTVYLLMNSLKPEDTAVYYCAAYHYSVFPYKQYDYWGQGTQVTVSS,high polyreactivity
5,QVQLVESGGGLVQAGGSLRLSCAASGLIFFTYAMGWYRHAPGKERELVATISRGGRTKYADSVKGRFTISRDNAKNTVYLQMNSLKPEDTAVYYCAAYLSRSYYAYDYWGQGTQVTVSS,high polyreactivity
6,QVQLVESGGGLVEAGGSLRLSCAASGSTFTYYAMGWFRPAPGKERELVAAISSSGTSTYYADSVKGRFTLSRDNEKNTVSLQLNSLKPEDPAVYYCAADYYHTRGEADYEYAYWGKGTQVTVSS,low polyreactivity
7,QVQLVESGRGLVQAGGSLRLSCAASGRIFRYYTMGCYRQAPGKERELVASITYRGTSTYYADSVKGRFTISRDNAKNTVYLQMTSLKPEDTAVYYCNKDLFFRSISSKYDYWGQGTQVTVSS,high polyreactivity
8,QVQLVESGGGLVQAGGSLRLSCAAYGFILDFYTMGWYRQAPGKERELVAAITNGGSTYYADSVKGRFTISRDNAKNTVYLQMNSLKPEDTAVYYCAAYYRSRHNGYDSWGQGTQVTVSS,low polyreactivity
9,QVQLVESGGGLDHAGGSLRLSCAPSGRIFSVNAMGWYRQAPGKERELVAAITSGDSTNYADSVKGRFTISRDNAKNTVYLQSNSMKQEDTAVYYCNARGSQELWRRKWYHTEYDSWGQGTQVSVSS,low polyreactivity
10,QVQLVESGGGLVQAGRSLRLSCAASGFTFVWYAMGWYRQAPGTERELVAAISRRGTRTYYADSVKGRFTISRDNAKNTVYLQMNSLKPEDTAVYYCAASNGYQAVTYDYWGQGTQVTVSS,high polyreactivity
11,QVHLVDSGGGLVQAGGSLRLSCAASGSIIVFYAMGWYRQAPGKERELVAAITDSGSTNYADSVKGRFTISRDNAKNTVYLQMNSLKPEDTAVYYCDWSYYVLRRYRVARYDSGGQGTQVTVSS,low polyreactivity
12,QVQLVESGGGLVQAGGSLRLSCAASGSTFTIYAYGWYRQAPGKERELVAAITRGGGRTYYADSVKGRFTISRDNAKNTVFLQMNSLKPEVTAVYYCAAYYAHEFDYRGQGTQVTVSS,high polyreactivity
13,QVQLVESGGGLVQAGGSLRLSCAASGLIFRPYAMGWYRQAPGKEREFVAAITWSTGSTYYADSVKGRFTISRDYAKNTVYLQMNSLKPEDTAVYYCAARYTVWRRDYNYWGQGTQVTVSS,high polyreactivity
14,QVQLVESGGGLVQAGGSLRLSCAASGRTFSKYTMGWYIQAPGKERELVAAISYSGGSTYYADSVKGRFTISRDNAKNTVYLKMNSLKPEDTAVYYCAARASTYKYYYWGQGTQVTVSA,high polyreactivity
15,QVQLVESGGGLVQAGGSLRISCAASGNIFVDYAMGWYTQAPGKERELVATITRTGDSTTYADSVKGRFTISRDNAKNTVYLQMNSLKPEDTAVYYCNTDLRLVYRTKGFISWGYDYWGQGTQVTVSS,low polyreactivity
16,QVQLVESGGGLVQAGGSLRLSCAASGSNIKYYAMGWYRQAPGKERELVAAISWRGGRTYADSVKGRFTISRDNAKNTVYLQMNSLKPEDTAVYYCATAQTSITGRVYYWGQGTQVTVSS,high polyreactivity
17,QVQHVQTLGGLDQAGGSLRLSFSDSGSNFGYYSIVLYRLAPGKERELVAAITGSGGGTYYADSVKGRLTISRDNAKNTVYLQMNSLKPEDTAVYYCAKDRNYRIYWGEYWGHGTQVTVSS,low polyreactivity
18,QVQLVESGGGLVQAGGSLRLSCAASGTFFGYALGWYRQAPGKERELVAAITPGGSTYYADSVKGRFTISRDNAKNTVYLQMNSLKPEDTAVYYCARVYSRWSYRYDYWGQGTQVTVSS,low polyreactivity
19,QVQLVESGGGFVQAGGSLRLSCAASGIIFDYNAMGWYRQAHGKERELVAAISGRSGRTYYADSVKGRFTISRDNAKNTVYLQMNSLKPEDTAVYYCAARWYAGGNYWGQGTQVTVSS,high polyreactivity
20,QVQLVESGGGLVQAGGSLRISCAASGFTVWGYAMGWYRQAPGKERELVAGITTRGGSTYYADSVKGRFTISRDNAKNTVYLQMNSLKPEDTAVYYCNVVSSTRTYRYDYWGQGTQVTVSS,high polyreactivity
21,QDQLVESRGGEVQAGGSRRLRCAASGLTFLYNAMGWYRQAPGKERELVAAISQSAGSTYYADSVKGRFTISRDTAKNTVYLQLNSLKPEETAVYYFAADWDTPDLVIYDYWGQGTQVTLSS,low polyreactivity
22,QVQLVESGGGLVQAGGSLRLSCAASGFIFPWYAMGWSRQAPGKERELVAIISWDTGSTYYADSVKGRFTISRDNAKNTVYLQMNSLKPEDTAVYYCVAYVGSTYSAPEYYWGQGTQVTVSS,low polyreactivity

row,Sequence,polyreactivity (PSR sort gate)
1,QVQLVESVGGLVQAGGILRLSCAASGSIFRSYAMGWYRQAPGKERELVAAIRSDGRTNYADSLKGRFTISRDNAKNTVYFPMNRLKPEDTAVYYCAAKAYYSYWRSMDYWGQGTQVTVSS,low polyreactivity
2,QVQLVESGGGLVQAGGSLRLSCAASGRTFTYYAMGWYRQAPGKERELVAAITGRGGRTYYADSVKGRFTISRDIAKNTVYLQMNSLKREDTAVYYCATRDPYYSSEYTYGYWGQGTQVTVSS,high polyreactivity
3,QVQLVESGGGLVQAGGSLRLSCAASGRILTSYARGWYRQAPGKVRELVAAISYVCGSTDYADSVKGRFTISRDNAKNTVYLQMNSLKPEDTAVYYCAAKVRYYLSLRGSTTRRDDYYWGQGTQVTVSS,low polyreactivity
4,QVQLVESGGGLVQAGGSLRLSCAASGFIFVENAMGWYIQAPGKERELVASISRRGGSTYYADSVKGRFTISRDNAKNTVYLQMNSLKPEDTAVYYCAATLGRTRYNYWGQGTQVTVSS,high polyreactivity
5,QVQLVESGGGLVQAGGSLRLSCAASGSSRYAMGWYTPAPGKERELVAVITLSGGITYADSVKGRFTISRDNAKNTVYLQMKSLKPEDTAVYYCNADYGDWPTGGDYWGQGTQVTVSS,low polyreactivity
6,QVQLVESGGGLVQAGGSLRLSCAASGSTFAVYAMGWYRQAPGKERELVAAITRGDRTYYADSVKGRFTISRDNAKNTVYLQMNSLKPEDTAVYYCAAGYYRLWVRYDYWGQGTQVTVSS,low polyreactivity
7,QVQLVESGGGLVQAGGSLRLSCAASGFIFWYYAIGWYRQAPGKERELVADISSGGSTNYADSVKGRFTISRDNAKNTVYLQMNSLKPEDTAVYYCADDTFRRDDYWGQGTQVTVSS,low polyreactivity
8,QVQLVESGGGLVQAGGSLRLSCAASGGIFPAYAMGWYRQAPGKERELVASISANGGRTYYADSVKGRFTISRDNAKNTVYLQMNSLKPEDTAVYYCNASSRSGSWRFYYWGQGTQVTVSS,high polyreactivity
9,QDQLVESGGGLVQAGGSLRLSCAASGITFNRYAMGWYRQAPGKERELVAAISRTGGSTYYADSVKARFTISRDNAKNTVYLQMNSLKPEDTAVYYCASRYTKGMYYWGQVTQVTVSS,high polyreactivity
10,QVQLVESGGGLVQAGGSLRLSCAASGIIFEYYAKGWYRQAPGKERELVAAITSDGSTNYADSVKGRFTISRDNEKNTVYLQMNRLKPEDTAVYYCNADLKANIQGVLSTGDDYWGQGTQVTVSS,low polyreactivity
11,QVQLVESGGGLVQAGGSLRLSCAASGRIFPFYDMGWYRQAPGKERELVAAITSGTGTYYADSVKGRFTISRDNAKNTVYLQIYSLKPEDTAVYYCNARRYLRGYWGQGTQVTVSS,low polyreactivity
12,QVQLVESGGGLVQAGGSLRLSCAASGSTFWFNDMGWYRQAPGKEREFVAAISSIGGSTYYADSVKGRFTISRDNAKNTVYLQMNSLKPEDTAVYNCAVEVVRVYRYDYWGQGTQVTVSS,low polyreactivity
13,QVQLVESGGGLVQAGGSLRFSCAASGSIFKGNVMGWYRQAPGKERELVAAITWSGGSTYYADSVKGRFTISRDNAKNTVSLQMNSLKPEDTAVYNCNTRWILGRRFYYWGQGTQVTVSS,high polyreactivity
14,QVQLVESAGGLVQAGVSLRISCAASGSTIRHYAMGWYRQAPRKERELVAAISSGARTYYADSEKGRFTISRDNAKNTVYLQMNSLKPEDTAVYYRAARYNGYANPYYYWGQGTQVTVSS,high polyreactivity
15,QVQLVESGGGLVQAGGSLRLSCADSARTFYYNTKGWYRQAPGKERELVASISGSGGRTYYADSVKGRFTISRDNAKNTVYLQMNSLKPEDTAVYYFAAGSIRYRFPFGYDYWGQGTQVTLSS,high polyreactivity
16,QVQLVESGGGLVKAGGSLRLSCAASGSTFYAYAMGWSRQAPGKERELVAAISSSGGSTYYADSVKGRFTISRDNAKNTVYLQMNSLKPEDTAVYYCAAYDSVQIYWILGFDYWGQGSQVTVSS,low polyreactivity
17,QVQLVESGGGLVQAGGSLRLSCAASGSTSRYNVMGWSRQPPGKERELVAAISSRGVSTYYADSVKGRFTISRDNAKNTVYLQMNSLKPEDTAVYYCAALYGGPSHYGYWGQGTQVTVSS,high polyreactivity
18,QVQLVESGGGLVQAGGSLRLSCAASGFIFGRNTMGWYIQAPGKERELVAAITSGGSTNYADSVKGRFTISRDNAKNTVYLQMNSLKPEDTAVYYCAAEVSTYWTLYDYWGQGTQVTVSS,high polyreactivity
19,QVQLVESGGGLVQAGGSLRLSCAASGFIFRINAMGWYRQAPGKERELVAAISSSGGSTYYADSVKGRFTISRDNAKNTVYLQMNSLKPEDTAVYYCNAVGTGGYSSEYGYWGQGTQVTVSS,high polyreactivity
20,QVQLVESGGGLVQAGGSLRLSCAASGSNITYYAMGWYRQAPGKERELVAAINLSGDITYYADSVKGRFTISRDNAKNTVYLQMNSLKPEDTAVYYCAAESASSRPYFNSIHRRDSWGQGTQVTVSS,low polyreactivity
21,QVQLVESGGGLVQAGGSLRLSCAASGRTFYFYTMGWYRQAPGKERELVAAITSGGSTNYADSVKGRFTISRDNAKNTVYLQMNSLKPEDTAVYYCAAAYWRPGVRFFGPYDYWGQGTQVTVSS,high polyreactivity
